Results as given in article PMC9470594, “Paternal imprinting of dosage-effect defective1 contributes to seed weight xenia in maize”.

B1: sus1 promoter probe (dsDNA)
DNA 1: CTGAACCGTTTTTCGGTTTCAGTTTTCTCTGCTGACTGAAGCTTC
DNA 2: GAAGCTTCAGTCAGCAGAGAAAACTGAAACCGAAAAACGGTTCAG
B2: c1 promoter probe (dsDNA)
DNA 1: CATCATTCGATCAGTTTTCGTTCTGATGCAGTTTTCGATAAATGC
DNA 2: GCATTTATCGAAAACTGCATCAGAACGAAAACTGATCGAATGATG
B3: fl3 promoter probe (dsDNA)
DNA 1: TGTACAAATATTTCTACTGACAGTTTTTAAGAAACCACCTGTGGA
DNA 2: TCCACAGGTGGTTTCTTAAAAACTGTCAGTAGAAATATTTGTACA
B4: vp1 promoter probe (dsDNA)
DNA 1: GTCCTTGAAACTGCAATCCAAATCTACGCAACCGTTTTGCATGCCACTGTTTGTA
DNA 2: TACAAACAGTGGCATGCAAAACGGTTGCGTAGATTTGGATTGCAGTTTCAAGGAC

Target: DED1 (R2R3-MYB), GST fusion (Zea mays, UniProt A0A804M0V9 1-450)
Assay: EMSA; 5 mM Mg2+; EMSA: 50 ng DED1-GST, 6 ng probe in 20 uL 10 mM Tris pH 7.5, 50 mM KCl, 1 mM DTT, 2.5% glycerol, 5 mM MgCl2, 50 ug/uL (so in the source) poly(dI-dC), 0.05% NP-40, 25
Settings: protein: recombinant; tags: GST (N-terminal, pGEX-4T-1); label: biotin 3' end on one strand; blunt

Sequence of DED1 (R2R3-MYB), GST fusion (A0A804M0V9 entry or part of it): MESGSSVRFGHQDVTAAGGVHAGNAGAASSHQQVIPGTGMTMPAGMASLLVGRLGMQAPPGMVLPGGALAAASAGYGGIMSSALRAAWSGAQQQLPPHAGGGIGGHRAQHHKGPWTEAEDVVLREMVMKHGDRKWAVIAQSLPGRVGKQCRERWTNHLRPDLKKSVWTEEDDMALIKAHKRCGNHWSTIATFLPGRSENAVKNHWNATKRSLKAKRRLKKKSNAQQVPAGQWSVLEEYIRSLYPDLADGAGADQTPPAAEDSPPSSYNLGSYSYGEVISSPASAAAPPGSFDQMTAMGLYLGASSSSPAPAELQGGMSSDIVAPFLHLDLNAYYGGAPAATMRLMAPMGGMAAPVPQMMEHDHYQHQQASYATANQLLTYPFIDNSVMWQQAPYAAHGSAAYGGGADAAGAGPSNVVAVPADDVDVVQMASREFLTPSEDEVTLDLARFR

Row | Binder | binding result
1 | B1 | binds
2 | B2 | binds
3 | B3 | binds
4 | B4 | binds
